Laboratory results: US20230293578A1, “TREATMENT OF BACTERIAL VAGINOSIS” (priority 2020, published 2023)

Columns and labels:
[1] = test system: G. vag strain 14.2; test: antibiotic synergy testing, checkerboard cross dilution method in broth cultures; assay type: cell-based, Gardnerella vaginalis; conditions: 4 mg/mL bLF, 24 hr
[2] = in vivo
From the text: Zinc levels in vaginal fluid of BV have also been measured. Recommended zinc levels for bacterial growth are not readily available as zinc toxicity is low and the capacity of bacteria to store zinc is high, thus contributing to a very wide range of acceptable zinc levels that will support bacterial growth. […] Furthermore, in an L. iners based microbiome that has not progressed to full blown BV, a significant increase in calprotectin is also seen. Thus, when an altered microbiome takes hold, the body appears to be an active conspirator in discouraging L. Crispatus-type re-growth.
The remainder is expelled. This means that free iron is released from a dose of bovine lactoferrin that is partially saturated with iron and may become accessible to bacteria. Even if the released iron is immediately bound by the remaining lactoferrin, this proteolysis will inevitably increase the overall saturation percentage of the remaining bovine lactoferrin. In turn, it will also increase the saturation of human lactoferrin, since bovine and human forms exist in relative equilibrium considering that their bindings constants are similar. It also follows, that lowering the initial iron saturation of bovine lactoferrin will lower human lactoferrin's iron saturation levels and thus provide the least access to the bacterial binding proteins that scavenge iron from human lactoferrin. […]

[3] = test system: Gardnerella vaginalis; test: G. vaginalis growth in liquid culture, viability as CFU
Description: G. vag isolates were recovered from the vaginal discharge of BV positive patients and identification at the species level was performed by species-specific PCR using the primer pairs G. vaginalis V2-R1 and G. vaginalis V6-U2.
Cells were grown in aerobic conditions at 37° C. at 5% CO2 in PMD medium. PMD medium contains: proteose peptone No. 3 (BD211693) 15 g/L, maltone 2 g/L, dextrose 1 g/L, Na2HPO2 1 g/L, NaH2PO4 1 g/L adjusted to pH6.8. High Iron PMD medium additional contains 500 mg/L human hemoglobin. No Iron PMD is prepare by treating PMD medium with Chelex® 100 Chelating Resin (Bio-Rad Cat #1432832) then adding back 0.1 mM magnesium sulfate, 0.1 mM calcium chloride, and 10 μM zinc chloride. Low Iron PMD medium is prepared by adding 10 μM ferric ammonium citrate (FAC) to No Iron PMD. Overnight broth cultures of G. vaginalis were grown in High Iron PMD, centrifuged, resuspended No Iron PMD, incubated for 2 hr at 37° C. then diluted to 2.5×10^7 cells/mL in Low Iron PMD. Cells were grown in liquid culture for 24-48 hr then plated on agar to assess viability (expressed as colony forming units per mL (CFU)). Bulk bLF was dissolved in water and diluted in culture medium.

B1: bovine lactoferrin (protein, UniProt P24627 20-708, looked up)
Lactotransferrin: APRKNVRWCTISQPEWFKCRRWQWRMKKLGAPSITCVRRAFALECIRAIAEKKADAVTLDGGMVFEAGRDPYKLRPVAAEIYGTKESPQTHYYAVAVVKKGSNFQLDQLQGRKSCHTGLGRSAGWIIPMGILRPYLSWTESLEPLQGAVAKFFSASCVPCIDRQAYPNLCQLCKGEGENQCACSSREPYFGYSGAFKCLQDGAGDVAFVKETTVFENLPEKADRDQYELLCLNNSRAPVDAFKECHLAQVPSHAVVARSVDGKEDLIWKLLSKAQEKFGKNKSRSFQLFGSPPGQRDLLFKDSALGFLRIPSKVDSALYLGSRYLTTLKNLRETAEEVKARYTRVVWCAVGPEEQKKCQQWSQQSGQNVTCATASTTDDCIVLVLKGEADALNLDGGYIYTAGKCGLVPVLAENRKSSKHSSLDCVLRPTEGYLAVAVVKKANEGLTWNSLKDKKSCHTAVDRTAGWNIPMGLIVNQTGSCAFDEFFSQSCAPGADPKSRLCALCAGDDQGLDKCVPNSKEKYYGYTGAFRCLAEDVGDVAFVKNDTVWENTNGESTADWAKNLNREDFRLLCLDGTRKPVTEAQSCHLAVAPNHAVVSRSDRAAHVKQVLLHQQALFGKNGKNCPDKFCLFKSETKNLLFNDNTECLAKLGGRPTYEEYLGTEYVTAIANLKKCSTSPLLEACAFLTR
notes: bulk bLF dissolved in water for in vitro tests
[1]
  growth inhibited: 19.3%
[2]
  share of a vaginal dose broken down via vaginal or bacterial proteases: ≤ 20%
[3]; G. vag isolate 14.2, Low Iron PMD, FIG. 2
  concentration range of dose-dependent inhibition of G. vag growth: 0.5 to 32 mg/mL
[3]; iron-containing bovine lactoferrin preparation
  effect on G. vaginalis growth: growth suppression
